Source: patent CN111647076A (UNIV NANJING MEDICAL, dated 2020)

B1: 4A12-hFc重组蛋白 (Fc fusion)
chain: EVQLLESGGGLVQPGGSLRLSCAASDFAFSSYEMSWVRQAPGKGLEWIGEIHHSGSTYYNPSLKSLVTISRDNSKNTLYLQMNSLRAEDTAVYYCVKDFGHLGQMASWGQGTLVTVSS
B2: 4A12噬菌体 (single-domain antibody 4A12 displayed on phage) (VHH)
VHH: B1 chain
notes: also called 抗体4A12
B3: 4D5-hFc重组蛋白 (Fc fusion)
chain: EVQLLESGGGLVQPGGSLRLSCAASSFDFSSYEMSWVRQAPGKALEWIGEIHHSGSTYYNPSLKSRVTISRDNSKNTLYLQMNSLRAEDTAMYYCVKDLGFADHWGQGTLVTVSS
B4: 4D5噬菌体 (single-domain antibody 4D5 displayed on phage) (VHH)
VHH: B3 chain
notes: also called 抗体4D5
B5: 4C5-hFc重组蛋白 (Fc fusion)
chain: EVQLLESGGGLVQPGGSLRLSCAASDFYFADYEMSWVRQAPGKGLEWIGSIYHSGSTYYNPSLKSRVTISRDNSKNTLYLQMNSLRAEDTAMYYCAREWHSGYDYWGQGTLVTVSS
B6: 4C5噬菌体 (single-domain antibody 4C5 displayed on phage) (VHH)
VHH: B5 chain
notes: also called 抗体4C5
B7: 4A10-hFc重组蛋白 (Fc fusion)
chain: EVQLLESGGGLVQPGGSLRLSCAASSFDFSDYEMSWVRQAPGKGLEWIGEIHHSGSTYYNPSLKSRVTISRDNSKNTLYLQMNSLRAEDTATYYCVKDFVVGETAEFSYWGQGTLVTVSS
B8: 4A10噬菌体 (single-domain antibody 4A10 displayed on phage) (VHH)
VHH: B7 chain
notes: also called 抗体4A10

Experiments:
[1] = target: SARS-Cov-2 spike on lentiviral pseudovirus (SARS-Cov-2, UniProt P0DTC2 14-1273); experiment: cell-based or functional assay
SARS-Cov-1-RBD-hFc = target: T1, SARS-Cov-1-RBD-hFc (SARS-Cov-1, UniProt P59594 306-527); experiment: phage ELISA, antigen coated at 5 μg/ml, anti-M13-HRP
T1 construct: domain: RBD

Row | Binder | IC50 of pseudovirus infection of ACE2-CHO cells (Luciferase活性) [1] [µg/mL] | binding result (SARS-Cov-1-RBD-hFc)
1 | B1 | 0.19 | 
2 | B2 |  | no binding
3 | B3 | 1.13 | 
4 | B4 |  | no binding
5 | B5 | 2.32 | 
6 | B6 |  | no binding
7 | B7 | 0.66 | 
8 | B8 |  | no binding
